The assay deals with NHEK. In words: Migration/proliferation of NHEK, wound recovery by kinetic image analysis. Type of assay: cell-based, human. To be noted: 10 ng/ml, single image. As to the method: Botanical extracts were evaluated for anti-aging, cell renewal and anti-inflammatory properties via systemic application (diluted in the culture medium) using the concentrations that were determined not toxic for skin cells (0.1 mg/ml) followed by two successive 3-fold dilutions. The matrix metalloproteinase-1 (MMP-1) assay using a specific ELISA kit was used to evaluate anti-aging properties. The migration/proliferation of NHEK using kinetic image analysis of the wound recovery was used to evaluate cell renewal properties. The IL-8 release on NHEK stimulated by PMA using a specific ELISA kit was used to evaluate anti-inflammatory properties.

The record followed here is US11077159B2, “Compositions from halophyte plants and methods of use thereof” (KHALIFA UNIVERSITY OF SCIENCE AND TECHNOLOGY, priority 2017, dated 2021).

Several values for one entry are separate records, joined by “and”; a condition that tells them apart may be missing. Identical values can stand only once.

B1: EGF: control (EGF) at 10 ng/ml in the wound recovery assay (protein, UniProt P01133 23-1207, looked up)
Pro-epidermal growth factor: PQHWSCPEGTLAGNGNSTCVGPAPFLIFSHGNSIFRIDTEGTNYEQLVVDAGVSVIMDFHYNEKRIYWVDLERQLLQRVFLNGSRQERVCNIEKNVSGMAINWINEEVIWSNQQEGIITVTDMKGNNSHILLSALKYPANVAVDPVERFIFWSSEVAGSLYRADLDGVGVKALLETSEKITAVSLDVLDKRLFWIQYNREGSNSLICSCDYDGGSVHISKHPTQHNLFAMSLFGDRIFYSTWKMKTIWIANKHTGKDMVRINLHSSFVPLGELKVVHPLAQPKAEDDTWEPEQKLCKLRKGNCSSTVCGQDLQSHLCMCAEGYALSRDRKYCEDVNECAFWNHGCTLGCKNTPGSYYCTCPVGFVLLPDGKRCHQLVSCPRNVSECSHDCVLTSEGPLCFCPEGSVLERDGKTCSGCSSPDNGGCSQLCVPLSPVSWECDCFPGYDLQLDEKSCAASGPQPFLLFANSQDIRHMHFDGTDYGTLLSQQMGMVYALDHDPVENKIYFAHTALKWIERANMDGSQRERLIEEGVDVPEGLAVDWIGRRFYWTDRGKSLIGRSDLNGKRSKIITKENISQPRGIAVHPMAKRLFWTDTGINPRIESSSLQGLGRLVIASSDLIWPSGITIDFLTDKLYWCDAKQSVIEMANLDGSKRRRLTQNDVGHPFAVAVFEDYVWFSDWAMPSVMRVNKRTGKDRVRLQGSMLKPSSLVVVHPLAKPGADPCLYQNGGCEHICKKRLGTAWCSCREGFMKASDGKTCLALDGHQLLAGGEVDLKNQVTPLDILSKTRVSEDNITESQHMLVAEIMVSDQDDCAPVGCSMYARCISEGEDATCQCLKGFAGDGKLCSDIDECEMGVPVCPPASSKCINTEGGYVCRCSEGYQGDGIHCLDIDECQLGEHSCGENASCTNTEGGYTCMCAGRLSEPGLICPDSTPPPHLREDDHHYSVRNSDSECPLSHDGYCLHDGVCMYIEALDKYACNCVVGYIGERCQYRDLKWWELRHAGHGQQQKVIVVAVCVVVLVMLLLLSLWGAHYYRTQKLLSKNPKNPYEESSRDVRSRRPADTEDGMSSCPQPWFVVIKEHQDLKNGGQPVAGEDGQAADGSMQPTSWRQEPQLCGMGTEQGCWIPVSSDKGSCPQVMERSFHMPSYGTQTLEGGVEKPHSLLSANPLWQQRALDPPHQMELTQ
modifications: Pro-epidermal growth factor
notes: control (EGF) at 10 ng/ml in the wound recovery assay
Consider B1, for which the Wound area (16 hours) is 0.86 mm^2 and 0.69 mm^2 and 0.89 mm^2; the Wound area (24 hours) was 0.64 mm^2 and 0.44 mm^2 and 0.63 mm^2.
